One data set has as its target T1, PhAc-ALGP-doxorubicin.
T1 chain: ALGP

In a further data set the target is T2, NH2-Gly-Pro-Doxorubicin.
T2 chain: GP

Data set [1] deals with T3, N-succinyl-beta-alanyl-L-leucyl-L-alanyl-L-leucyl-doxorubicin.
T3 chain: ALAL

Another data set deals with T4, LGP-Dox.
T4 chain: LGP

The target in a further data set is T5, PhAc-KLGP-doxorubicin.
T5 chain: KLGP

The next data set has as its target T6, PhAc-DLGP-doxorubicin.
T6 chain: DLGP

The next data set addresses T7, PhAc-ALAF-doxorubicin.
T7 chain: ALAF

A further data set has as its target T8, PhAc-AIGP-doxorubicin.
T8 chain: AIGP

Data set [2] addresses T9, Succinyl-βALPF-doxorubicin.
T9 chain: ALPF

Another data set concerns the target T10, PhAc-ALPF-doxorubicin.
T10 chain: ALPF

Another data set addresses T11, PhAc-TSGP-doxorubicin.
T11 chain: TSGP

For the next data set, the target named is T12, PhAc-ALAL-doxorubicin.
T12 chain: ALAL

A further data set addresses T13, PhAc-GPGP-doxorubicin.
T13 chain: GPGP

B1: CD26 (protein)
chain: SRKTYTLTDYLKNTYRLKLYSLRWISDHEYLYKQENNILVFNAEYGNSSVFLENSTFDEFGHSINDYSISPDGQFILLEYNYVKQWRHSYTASYDIYDLNKRQLITEERIPNNTQWVTWSPVGHKLAYVWNNDIYVKIEPNLPSYRITWTGKEDIIYNGITDWVYEEEVFSAYSALWWSPNGTFLAYAQFNDTEVPLIEYSFYSDESLQYPKTVRVPYPKAGAVNPTVKFFVVNTDSLSSVTNATSIQITAPASMLIGDHYLCDVTWATQERISLQWLRRIQNYSVMDICDYDESSGRWNCLVARQHIEMSTTGWVGRFRPSEPHFTLDGNSFYKIISNEEGYRHICYFQIDKKDCTFITKGTWEVIGIEALTSDYLYYISNEYKGMPGGRNLYKIQLSDYTKVTCLSCELNPERCQYYSVSFSKEAKYYQLRCSGPGLPLYTLHSSVNDKGLRVLEDNSALDKMLQNVQMPSKKLDFIILNETKFWYQMILPPHFDKSKKYPLLLDVYAGPCSQKADTVFRLNWATYLASTENIIVASFDGRGSGYQGDKIMHAINRRLGTFEVEDQIEAARQFSKMGFVDNKRIAIWGWSYGGYVTSMVLGSGSGVFKCGIAVAPVSRWEYYDSVYTERYMGLPTPEDNLDHYRNSTVMSRAENFKQVEYLLIHGTADDNVHFQQSAQISKALVDVGVDFQAMWYTDEDHGIASSTAHQHIYTHMSHFIKQCFSLP
In the case of B1, the “hydrolysis by purified CD26” value is “Neither CD26 nor FAP hydrolized either PhAc-ALGP-Dox, Suc-βALAL-Dox or LGP-Dox” with PhAc-ALGP-doxorubicin; “Neither CD26 nor FAP hydrolized either PhAc-ALGP-Dox, Suc-βALAL-Dox or LGP-Dox” in data set [1]; “Neither CD26 nor FAP hydrolized either PhAc-ALGP-Dox, Suc-βALAL-Dox or LGP-Dox” with LGP-Dox. Moreover, the “conversion to Dox after 3 h incubation at 37° C. with purified CD26” value with NH2-Gly-Pro-Doxorubicin is 97% conversion to Dox after 3 h incubation at 37 °C.

B2: CD10 (recombinant human neprilysin, R&D systems, Ref 1182-ZN) (protein)
chain: DDGICKSSDCIKSAARLIQNMDATTEPCTDFFKYACGGWLKRNVIPETSSRYGNFDILRDELEVVLKDVLQEPKTEDIVAVQKAKALYRSCINESAIDSRGGEPLLKLLPDIYGWPVATENWEQKYGASWTAEKAIAQLNSKYGKKVLINLFVGTDDKNSVNHVIHIDQPRLGLPSRDYYECTGIYKEACTAYVDFMISVARLIRQEERLPIDENQLALEMNKVMELEKEIANATAKPEDRNDPMLLYNKMTLAQIQNNFSLEINGKPFSWLNFTNEIMSTVNISITNEEDVVVYAPEYLTKLKPILTKYSARDLQNLMSWRFIMDLVSSLSRTYKESRNAFRKALYGTTSETATWRRCANYVNGNMENAVGRLYVEAAFAGESKHVVEDLIAQIREVFIQTLDDLTWMDAETKKRAEEKALAIKERIGYPDDIVSNDNKLNNEYLELNYKEDEYFENIIQNLKFSQSKQLKKLREKVDKDEWISGAAVVNAFYSSGRNQIVFPAGILQPPFFSAQQSNSLNYGGIGMVIGHEITHGFDDNGRNFNKDGDLVDWWTQQSASNFKEQSQCMVYQYGNFSWDLAGGQHLNGINTLGENIADNGGLGQAYRAYQNYIKKNGEEKLLPGLDLNHKQLFFLNFAQVWCGTYRPEYAVNSIKTDVHSPGNFRIIGTLQNSAEFSEAFHCRKNSYMNPEKKCRVW
On to B2, for which the “cleavage by purified CD10 10 nM (grade)” value with PhAc-ALGP-doxorubicin is listed as “+”; with PhAc-DLGP-doxorubicin it was “-”; with PhAc-ALAF-doxorubicin it was “+”; with PhAc-AIGP-doxorubicin, “+”; with PhAc-ALPF-doxorubicin, “-”; in the data set with PhAc-TSGP-doxorubicin, “-”. Further, the “cleavage by purified CD10 10 nM (grade)” value was “-” with PhAc-GPGP-doxorubicin, “+” in data set [1] and “-” in the data set with LGP-Dox. Further, the “cleavage by purified CD10 10 nM (grade; * = less than 5% of metabolites detected)” value (with PhAc-KLGP-doxorubicin; in data set [2]; with PhAc-ALAL-doxorubicin) was “-*” each time.

Values taken from patent US20160058880.
